Experimental data taken from publication PMC11301063, “The Musashi-1–type 2 deiodinase pathway regulates astrocyte proliferation”.

What was measured:
Musashi-1 (MSI1) [1] = biological target: T1, Musashi-1 (MSI1) (Mus musculus (mouse), UniProt Q61474 1-362); test: EMSA; 1 ug protein incomplete shift (two bands), 1.5 ug complete shift of 80 fmol probe; REMSA 1x binding buffer (LightShift kit), 0.125 mg/ml BSA, 80 fmol RNA, 1.5 ug protein, 20 ul, 20 min at RT; native 6% PAGE in 0.5x TBE pH 7.5 at 4 C; protein dialyzed in 20 mM TBE, 5 mM DTT; details: protein: recombinant; tags: His tag; label: 3' biotin; single strand
T1 sequence (Q61474 whole entry): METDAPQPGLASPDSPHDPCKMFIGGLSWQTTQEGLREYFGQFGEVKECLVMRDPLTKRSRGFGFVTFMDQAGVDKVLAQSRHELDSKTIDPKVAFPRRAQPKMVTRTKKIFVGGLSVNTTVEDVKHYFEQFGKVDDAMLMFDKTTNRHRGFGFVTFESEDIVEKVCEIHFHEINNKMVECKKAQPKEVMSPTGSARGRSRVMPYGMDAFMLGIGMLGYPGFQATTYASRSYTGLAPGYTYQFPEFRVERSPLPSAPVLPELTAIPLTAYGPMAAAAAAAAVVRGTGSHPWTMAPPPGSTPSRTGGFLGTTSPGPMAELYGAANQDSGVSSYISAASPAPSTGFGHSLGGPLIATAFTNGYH

Musashi-1 (MSI1) [2] = biological target: T1, Musashi-1 (MSI1); test: competition; free probe restored at 1250x (100 pmol) unlabeled RNA; 1.5 ug protein, 80 fmol labeled N1; REMSA 1x binding buffer (LightShift kit), 0.125 mg/ml BSA, 80 fmol RNA, 1.5 ug protein, 20 ul, 20 min at RT; native 6% PAGE in 0.5x TBE pH 7.5 at 4 C; protein dialyzed in 20 mM TBE, 5 mM DTT; details: protein: recombinant; tags: His tag; label: none; single strand

| Binder | binding result (Musashi-1 (MSI1) [1]) | binding result (Musashi-1 (MSI1) [2]) |
| --- | --- | --- |
| GUUUAUAGCUAGAUUAGUUUAGCUGAAAGUUAAGUAGUUUGCAA (ssRNA) [cDio2 3'UTR RNA probe nt 2582-2625] | binds |  |
| GUUUAUAGCUAGAUUAGUUUAGCUGAAAGUUAAGUAGUUUGCAA (ssRNA) [unlabeled cDio2 3'UTR RNA competitor] |  | binds |
